Test results as given in US20240043504A1 (published 2024).

Tests used:
[1] = biological target: SARS-CoV-2 (2019-nCoV) Spike Protein (S1 Subunit, Fc Tag) (Sino 40591-V02H) (SARS-CoV-2, UniProt P0DTC2 16-685); assay: Luminex bead binding, supernatant
[2] = biological target: SARS-CoV-2 (2019-nCoV) Spike Protein (S1 Subunit, His Tag) (Sino 40591-V08H) (SARS-CoV-2, UniProt P0DTC2 16-685); assay: Luminex bead binding, supernatant
[3] = biological target: SARS-CoV-2 Spike Protein (S1 Subunit, Fc Tag) (Sino 40591-V02H) (SARS-CoV-2, UniProt P0DTC2 16-685); assay: Luminex, supernatant
[4] = biological target: SARS-CoV-2 Spike Protein (S1 Subunit, His Tag) (Sino 40591-V08H) (SARS-CoV-2, UniProt P0DTC2 16-685); assay: Luminex, supernatant

Row | Binder | Binding signal (MFI) [1] | Binding signal (MFI) [2] | MFI [3] | MFI [4]
1 | mAb11004 (antibody, V domains shown) VH: QVQLVESGGGVVQPGRSLRLSCVASGFTFSIYGMDWVRQAPGKGLEWVAVISYDGSNKYYADSVKGRFTISRDNSKNTLYLQMNSLRPEDTAVYYCAKDREAAADAFDIWGQGTMVTVSS VL: DIQMTQSPSSVSASVGDRVTITCRASQGISSWLAWYQQKPGKAPKLLIYAASSLHSGVPSRFSGSGSGTDFTLTISSLQPEDFATYYCQQANSFRLTFGGGTKVEIK | 4480 MFI | 9530 MFI | – | –
2 | mAb11006 (antibody, V domains shown) VH: EVQLVESGGGLVQPGGSLRLSCAASGFIVSRNYMSWVRQAPGKGLEWVSVIYSGGSTFYADSVKGRFTISRHNSKNTLYLQMNSLKAEDTAVYYCARELRGYFDYWGQGTLVTVSS VL: DIQLTQSPSFLSASVGDRVTITCWASQGISSYLAWYQQKPGKAPKLLIYAASTLQSGVPSRFSGSGSGTEFTLTISSLQPEDFATYYCQLLNSYPYTFGQGTKLEIK | 2050 MFI | – | – | –
3 | mAb11008 (antibody, V domains shown) VH: EVQLVESGGGLVQPGGSLRLSCAASGFTVSSNYMTWVRQAPGKGLEWVSVIYSGGSTFYADSVKGRFTISRHNSENTLYLQMNSLRAEDTAVYYCARDLAAAGTDYWGQGALVTVSS VL: DIQLTQSPSFLSASVGDRVTITCWASQGISSYLAWYQQKPGKAPKLLIYAASTLQSGVPSRFSGSGSGTEFTLTISSLQPDDFATYYCQHLNSYLYTFGQGTKLEIK | 6880 MFI | 1420 MFI | – | –
4 | mAb10998 (antibody, V domains shown) VH: EVQLVESGGGLVHPGGSLRLSCAASGLTVSSNYMSWVRQAPGKGLEWVSVIYSGGSTYYADSVKGRFTISRHNSKNTLFLQMNSLRAEDTAVYYCARDRPITGTTLDVWGQGTTVTVSS VL: DIQMTQSPSSLFASVGDRVTITCRASQSISSYLNWYQQKPGKAPKLLIYAASSLQSGVPSRFSGSGSGTDFTLTISSLQPEDFAFYYCQQTYSTPPITFGQGTRLEIK | 724 MFI | 717 MFI | – | –
5 | mAb10989 (antibody, V domains shown) VH: QVQLVQSGAEVKKPGASVKVSCKASGYIFTGYYMHWVRQAPGQGLEWMGWINPNSGGANYAQKFQGRVTLTRDTSITTVYMELSRLRFDDTAVYYCARGSRYDWNQNNWFDPWGQGTLVTVSS VL: QSALTQPASVSGSPGQSITISCTGTSSDVGTYNYVSWYQQHPGKAPKLMIFDVSNRPSGVSDRFSGSKSGNTASLTISGLQAEDEADYYCSSFTTSSTVVFGGGTKLTVLG | – | – | 12300 MFI | 14200 MFI
6 | mAb10971 (antibody, V domains shown) VH: EVQLVESGGGLIQPGGSLRLSCAASGVTVSSNYMSWVRQAPGKGLEWVSVIYSGGSTFYSDSVKGRFSISRDNSKNTLYLQMNSLRAEDTAVYYCARDLYYYGMDVWGQGTTVTVSS VL: DIQLTQSPSFLSASVGDRVTITCRASQGISTYLAWYQQKPGKAPKLLIYAASTLQSGVPSRFSGSGSGTEFTLTISSLQPEDFATYYCQQLDSYPGLTFGGGTKVEIKR | – | – | 17000 MFI | 21600 MFI
7 | mAb10964 (antibody, V domains shown) VH: QVQLQESGPGLVKPSETLSLTCTVSGGSINNYYWIWIRQPPGKGLEWIGYIYHSGSTNYNPSLKSRVTISVDTSKNQFSLKVSSVTAADTAVYYCANMVRGVYEDDYWGQGTLVTVSS VL: DIQMTQSPSSLSASVGDRVTITCRASQSISNYLNWYQQKPGKAPKLLIFAASSLRSGVPSRFSGSGSGTDFTLTISSLHPEDFATYYCQQNYNTPLTFGPGTKVDIKR | – | – | 18600 MFI | 24200 MFI
8 | mAb10966 (antibody, V domains shown) VH: EVQLVESGGGLVQPGGSLRLSCAASGLTVSSNYMSWVRQAPGKGLEWVSVIYSGGSTFYADSVKGRFTISRDNSKNTLYLQMNSLRPEDTAVYYCAREGRIAATGYGMDVWGQGTTVTVSS VL: not shown | – | – | 16400 MFI | 23300 MFI
9 | mAb10967 (antibody, V domains shown) VH: EVQLVESGGGLVQPGGSLRLSCAASGFTVSSNYMSWVRQAPGKGLEWVSVIYPGGSTFYADSVKGRFTISRDNSKNTLYLQMNSLRAEDTAVYYCARDQRDFAWGQGTLVTVSS VL: DIQMTQSPSSLSASVGDRVTITCQASQDISNYLNWYQQKPGKAPKLLIYDASNLETGVPSRFSGSGSGTDFTFTISGLQPEDIATYYCQQYDNLPPTFGQGTRLEIKR | – | – | 15800 MFI | 21900 MFI
10 | mAb10954 (antibody, V domains shown) VH: EVQLVESGGGLVQPGGSLRLSCAASGITVSSNYMSWVRQAPGKGLEWVSLIYSGGSTYYADSVKGRFTISRDNSKNTLYLQMNSLRVEDTAVYYCARDHGMAAAGYNYWGQGTLVTVSS VL: DIQMTQSPSSLSASVGDRVTITCQASQDINKYLNWYQQKPGKAPKLLIYDASNLETGVPSRFSGSGSGTDFTFTINSLQPEDFATYFCQQYDNLPPAFGQGTKVEIKR | – | – | 16600 MFI | 21300 MFI
11 | mAb10956 (antibody, V domains shown) VH: EVQLVESGGGLVQPGGSLRLSCAASGLTVSSNYMSWVRQAPGKGLEWVSVIYSGGSTFYADSVKGRFTISRDNSKNTLYLQMNSLRAEDTAVYYCARDLIKYGMDVWGQGTTVTVSS VL: not shown | – | – | 15000 MFI | 20000 MFI
12 | mAb10957 (antibody, V domains shown) VH: EVQLVESGGGLVQPGGSLRLSCAASGVTVSSNYMSWVRQAPGKGLEWVSVIYSGGSTFYADSVKGRFTISRDNSKNTLFLQMNSLRIEDTAVYYCARDLGPYGMDVWGQGTTVTVSS VL: DIQLTQSPSFLSASVGDRVTITCRASQGISSYLAWYQQKPGKAPKLLIYAASTLQSGVPSRFSGSGSGTQFILTISSLQPEDFATYYCQQLNSYPGFTFGPGTKVDIKR | – | – | 8450 MFI | 12000 MFI
